As a reminder, the Kd is the equilibrium constant for the complex coming apart. A high value points to lower affinity.

The target of experiment [1] is T1, ABCG5/G8 heterodimer (ATP-binding cassette transporters ABCG5 and ABCG8), human, full length (Homo sapiens, UniProt Q9H222;Q9H221).
T1 construct: ABCG5, human, full length; followed by a TEV protease cleavage site and a 12 His tag on the C-terminus; ABCG8, human, full length; In DDM micelles for SPR and the ATPase assay; in saposin A-based nanodiscs for cryo-EM; also called ABCG5/ABCG8; source: Pichia pastoris (ATUM-9016 strain), membranes extracted with DDM, purified (HisTrap, Superdex 200)
Put plainly: SPR; Biacore T200, CM5 chip with goat anti-mouse IgG Fc antibody capturing the mouse anti-ABCG5/G8 mAbs (~100 Ru); ABCG5/G8 in DDM micelles, multicycle kinetics, 6 pM to 100 nM, 50 µL/min, 180 s association, 1800 s dissociation (the legend of Fig. 1 says instead that mAb was injected over immobilized ABCG5/G8). As to conditions: both partners purified. (Surface plasmon resonance follows binding to a sensor surface in real time, without labels.)

In experiment [2] the target is T2, ABCG8 (ATP-binding cassette transporter G8), human, full length, half transporter of the ABCG5/G8 heterodimer (human, UniProt Q9H221).
T2 construct: ABCG8, human, full length; Same chain as the second chain of m1; written alone for the contacts seen in the structure; First residue seen in the cryo-EM structure is Phe28; source: Pichia pastoris (ATUM-9016 strain), expressed with ABCG5 and purified as the heterodimer (HisTrap, Superdex 200)
Put plainly: cryo-EM structure; ternary complex of ABCG5/G8 with Fab 2E10 and Fab 11F4, purified by size exclusion, in saposin A-based nanodiscs; nucleotide-free, inward-facing; 3.3 Å. Conditions: both partners purified.

T2 sequence (Q9H221 whole entry, one chain of several): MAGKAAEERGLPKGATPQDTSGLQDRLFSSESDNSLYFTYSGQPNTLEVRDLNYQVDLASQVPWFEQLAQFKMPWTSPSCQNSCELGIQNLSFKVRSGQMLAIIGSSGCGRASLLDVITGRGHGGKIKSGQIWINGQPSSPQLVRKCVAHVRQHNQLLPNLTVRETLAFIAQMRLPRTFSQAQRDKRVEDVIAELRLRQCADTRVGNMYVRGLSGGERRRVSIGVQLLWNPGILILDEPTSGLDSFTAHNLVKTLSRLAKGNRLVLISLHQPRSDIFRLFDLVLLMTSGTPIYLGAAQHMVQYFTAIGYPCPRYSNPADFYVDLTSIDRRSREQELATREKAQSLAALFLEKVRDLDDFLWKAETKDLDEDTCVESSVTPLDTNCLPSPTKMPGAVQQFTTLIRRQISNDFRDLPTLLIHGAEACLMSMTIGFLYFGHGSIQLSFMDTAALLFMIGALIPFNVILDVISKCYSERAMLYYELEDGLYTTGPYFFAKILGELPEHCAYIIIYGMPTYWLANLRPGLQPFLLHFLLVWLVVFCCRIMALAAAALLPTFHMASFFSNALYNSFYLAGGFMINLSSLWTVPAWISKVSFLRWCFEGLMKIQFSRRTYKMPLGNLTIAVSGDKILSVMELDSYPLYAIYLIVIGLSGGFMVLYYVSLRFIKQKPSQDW
T1 sequence (Q9H222 whole entry, chain 1 of 2): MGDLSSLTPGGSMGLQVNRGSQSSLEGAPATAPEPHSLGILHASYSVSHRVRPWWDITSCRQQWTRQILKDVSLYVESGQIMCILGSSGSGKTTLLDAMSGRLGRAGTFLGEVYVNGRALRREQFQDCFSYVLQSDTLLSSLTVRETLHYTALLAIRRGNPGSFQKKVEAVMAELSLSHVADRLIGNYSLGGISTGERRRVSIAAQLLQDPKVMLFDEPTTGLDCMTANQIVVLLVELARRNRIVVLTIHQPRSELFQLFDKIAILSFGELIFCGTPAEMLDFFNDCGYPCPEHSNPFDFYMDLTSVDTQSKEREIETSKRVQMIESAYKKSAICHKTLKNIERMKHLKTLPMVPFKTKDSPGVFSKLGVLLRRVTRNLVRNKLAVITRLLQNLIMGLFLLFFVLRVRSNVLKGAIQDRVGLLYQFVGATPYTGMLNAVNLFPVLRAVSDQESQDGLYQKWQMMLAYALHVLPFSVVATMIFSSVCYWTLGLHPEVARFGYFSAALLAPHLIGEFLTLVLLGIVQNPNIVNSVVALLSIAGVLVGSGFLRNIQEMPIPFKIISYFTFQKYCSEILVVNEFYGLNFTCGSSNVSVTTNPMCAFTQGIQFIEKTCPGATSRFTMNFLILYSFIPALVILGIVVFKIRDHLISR
T1 sequence (Q9H221 whole entry, chain 2 of 2): as the sequence (Q9H221 whole entry, one chain of several) above

B1: monoclonal antibody 2E10 against ABCG5/G8 (antibody, V domains shown)
VH: QVHLQQSGAELVRPGTSVKMSCKAAGYTFTYWWIGWLKQRPGHGLEWIGDFFPVSGHTNFNEKFRDKATLTADTSSSTAYMQLNSLTSEDSAIYYCARKQDSSGPLYAMDYWGQGTSVTVSS
VL: DIQMTQSSSYLSVSLGGRVTITCKASDHINNWLAWYQQKPGNAPRLLISAATSLETGVPSRFSGSGSGKDYTLSIISLQTEDVATYYCQQYWSTPFTFGSGTKLEIK
notes: the Fab part of the heavy chain is in PDB 7JR7 (as the heavy chain of m4); as the light chain of m4, in PDB 7JR7; Mouse IgG (captured by goat anti-mouse IgG Fc); also called mAb 2E10; source: produced at the antibody core facility at Oregon Health Science University
Take B1: in experiment [1], the Kd worked out at 0.11 nM.

B2: Fab fragment of monoclonal antibody 2E10 (Fab, V domains shown)
VH: QVHLQQSGAELVRPGTSVKMSCKAAGYTFTYWWIGWLKQRPGHGLEWIGDFFPVSGHTNFNEKFRDKATLTADTSSSTAYMQLNSLTSEDSAIYYCARKQDSSGPLYAMDYWGQGTSVTVSS
VL: DIQMTQSSSYLSVSLGGRVTITCKASDHINNWLAWYQQKPGNAPRLLISAATSLETGVPSRFSGSGSGKDYTLSIISLQTEDVATYYCQQYWSTPFTFGSGTKLEIK
notes: also called Fab 2E10; source: papain cleavage of mAb 2E10, purified by gel filtration chromatography
B2: in experiment [2], the binding result is “binds”.

B3: monoclonal antibody 11F4 against ABCG5/G8 (antibody, V domains shown)
VH: DVQLQESGPGLVKPSQSLSLTCTITGYSITSDYAWNWIRQFPGNKLEWMGYISYSGTTYYNPSLKSRFSITRDTSRNQFFLQFNSVTTEDTGTYFCARMITTVYYFDYWGQGTTLTVSS
VL: QIVLTQSPTIMSASLGERVTMTCTASSSASSSYLHWYQQKPGSSPKLWIYSTSNLASGVPARFSGSGSGTSYSLTISNMEAEDAATYYCHQHHRSPPTFGAGTKLELK
notes: the Fab part of the heavy chain is in PDB 7JR7 (as the heavy chain of m5); as the light chain of m5, in PDB 7JR7; Mouse IgG (captured by goat anti-mouse IgG Fc); also called mAb 11F4; source: produced at the antibody core facility at Oregon Health Science University
In the case of B3, the Kd in experiment [1] came out at 0.12 nM.

B4: Fab fragment of monoclonal antibody 11F4 (Fab, V domains shown)
VH: DVQLQESGPGLVKPSQSLSLTCTITGYSITSDYAWNWIRQFPGNKLEWMGYISYSGTTYYNPSLKSRFSITRDTSRNQFFLQFNSVTTEDTGTYFCARMITTVYYFDYWGQGTTLTVSS
VL: QIVLTQSPTIMSASLGERVTMTCTASSSASSSYLHWYQQKPGSSPKLWIYSTSNLASGVPARFSGSGSGTSYSLTISNMEAEDAATYYCHQHHRSPPTFGAGTKLELK
notes: also called Fab 11F4; Fab11F4; source: papain cleavage of mAb 11F4, purified by gel filtration chromatography
Consider B4, for which the binding result in experiment [2] was “binds”.

The record behind these values is publication PMC8100176, “Cryo-EM structure of ABCG5/G8 in complex with modulating antibodies” (Communications Biology, 2021).
